According to US20180265882, “PLANTS WITH INCREASED SEED SIZE” (THE INSTITUTE OF GENETICS AND DEVELOPMENTAL BIOLOGY, published 2018):

T1: SOD7 (NGAL2, At3g11580) (Arabidopsis thaliana, UniProt Q8RYD3 SEQ:1-267)
T1 sequence: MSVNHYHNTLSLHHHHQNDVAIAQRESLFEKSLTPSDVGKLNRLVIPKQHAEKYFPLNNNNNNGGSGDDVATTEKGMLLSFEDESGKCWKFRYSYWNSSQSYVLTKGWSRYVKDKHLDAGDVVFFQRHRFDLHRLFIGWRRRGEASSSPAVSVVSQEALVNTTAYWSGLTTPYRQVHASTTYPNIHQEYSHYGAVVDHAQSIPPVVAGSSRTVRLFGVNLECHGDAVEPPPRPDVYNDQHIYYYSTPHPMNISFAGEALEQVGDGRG


Legend:
SOD7 (NGAL2, At3g11580) [1] = target: T1, SOD7 (NGAL2, At3g11580); assay: EMSA; binding reduced by unlabeled probe A; conditions: tags: N-terminal MBP fusion (pMAL-C2), expressed in E. coli BL21(DE3), amylose purified; label: biotin
Description: (§1) (A) Expression dynamics of SOD7 and KLU in pER8-SOD7 transgenic plants treated with β-estradiol for 0, 4 and 8 hours. Means were calculated from three biological samples. Values are given as mean±SD. **, P<0.01, compared with the expression level of KLU and SOD7 at 0 hour, respectively (Student's t-test). (B) A 2-kb promoter region of KLU upstream of its ATG codon contains a CACTTG sequence. PF1 and PF2 represent PCR fragments used for ChIP-quantitative PCR analysis. A and A-m indicate the wild-type probe and the mutated probe used in the EMSA essay, respectively. […] Chromatin from 35S:GFP and 35S:GFP-SOD7 transgenic plants was immunoprecipitated by anti-GFP, and the enrichment of the fragments was determined by quantitative real-time PCR. The ACTIN7 promoter was used as a negative control. The fold enrichment was normalized to the ACTIN7 amplicon, set at 1. Means were calculated from three biological samples. Values are given as mean±SD. **, P<0.01, compared with 35S:GFP transgenic plants (Student's t-test). (D) Direct interaction between SOD7 and the KLU promoter determined by EMSA. […] The retarded DNA-protein complex was reduced by competition using the unlabeled probe A.
(§2) The coding sequence of SOD7 was cloned into the NdeI and BamHI sites of the pMAL-C2 vector to generate the construct MBP-SOD7. […]

SOD7 (NGAL2, At3g11580) [2] = target: T1, SOD7 (NGAL2, At3g11580); assay: EMSA; mutated CACTTG, failed to bind; conditions: tags: N-terminal MBP fusion (pMAL-C2), expressed in E. coli BL21(DE3), amylose purified; label: biotin
Description: as §1, §2

Binder | binding result (SOD7 (NGAL2, At3g11580) [1]) | binding result (SOD7 (NGAL2, At3g11580) [2])
KLU promoter probe A (dsDNA) DNA 1: TTCTACTACACTTGCTCTCTGTA DNA 2: TACAGAGAGCAAGTGTAGTAGAA | binds | 
KLU promoter probe A-m (dsDNA) DNA 1: TTCTACTAACACCTCTCTCTGTA DNA 2: TACAGAGAGAGGTGTTAGTAGAA |  | no binding
